Source: US20260028400A1

How the values were obtained:
[1] = target: human- or mouse-derived ROR1 antigen (Sino Biological); assay: ELISA on coated ROR1 antigen (human or mouse not said), OD450
[2] = target: human- or mouse-derived ROR1 antigen (Sino Biological); assay: ELISA on coated ROR1 antigen (Sino Biological), conjugate against parent antibody P015044
[3] = target: human- or mouse-derived ROR1 antigen (Sino Biological); assay: ELISA on coated ROR1 antigen (Sino Biological), conjugate against parent antibody P015004
[4] = target: human- or mouse-derived ROR1 antigen (Sino Biological); assay: ELISA on coated ROR1 antigen (Sino Biological), conjugate against parent antibody P015042

| Binder | EC50 (read off the curve) [1] | Affinity compared to parent antibody (%) [2] | Affinity compared to parent antibody (%) [3] | Affinity compared to parent antibody (%) [4] |
| --- | --- | --- | --- | --- |
| P015044 (antibody, V domains shown) VH: EVQLLESGGGLVQPGGSLRLSCAASGFTFSNYAMHWVRQAPGKGLEWVSIIYPDDDTRYNPSFRGRFTISRDNSKNTLYLQMNSLRAEDTAVYYCARDLLYAGDYWGQGTLVTVSS VL: QSVLTQPPSASGTPGQRVTISCGGNNIESKAVHWYQQLPGTAPKLLIYANNKRPSGVPDRFSGSKSGTSASLAISGLRSEDEADYYCQSYDSNKVVFGGGTKLTVL | 0.8 nM | – | – | – |
| P015044-vc-PAB-MMAE (antibody, IgG1, V domains shown, maleimidocaproyl-valine-citrulline-p-aminobenzyloxycarbonyl monomethyl auristatin E on cysteine sulfhydryls of reduced disulfides; positions not given; average 3.0 drugs per antibody) VH: EVQLLESGGGLVQPGGSLRLSCAASGFTFSNYAMHWVRQAPGKGLEWVSIIYPDDDTRYNPSFRGRFTISRDNSKNTLYLQMNSLRAEDTAVYYCARDLLYAGDYWGQGTLVTVSS VL: QSVLTQPPSASGTPGQRVTISCGGNNIESKAVHWYQQLPGTAPKLLIYANNKRPSGVPDRFSGSKSGTSASLAISGLRSEDEADYYCQSYDSNKVVFGGGTKLTVL | 2 nM | 82.7% | – | – |
| P015004 (antibody, V domains shown) VH: EVQLLESGGGLVQPGGSLRLSCAASGFTFSDYAMAWVRQAPGKGLEWVSIIYPGDSETIYSPSFEGRFTISRDNSKNTLYLQMNSLRAEDTAVYYCARDTYWEGYFDLWGQGTLVTVSS VL: EIVLTQSPGTLSLSPGERATLSCRASQGISNYLAWYQQKPGQAPRLLIYDASNLESGIPDRFSGSGSGTDFTLTISRLEPEDFAVYYCQQYANLPYTFGQGTKVEIK | 0.8 nM | – | – | – |
| P015004-vc-PAB-MMAE (antibody, IgG1, V domains shown, maleimidocaproyl-valine-citrulline-p-aminobenzyloxycarbonyl monomethyl auristatin E on cysteine sulfhydryls of reduced disulfides; positions not given; average 3.0 drugs per antibody) VH: EVQLLESGGGLVQPGGSLRLSCAASGFTFSDYAMAWVRQAPGKGLEWVSIIYPGDSETIYSPSFEGRFTISRDNSKNTLYLQMNSLRAEDTAVYYCARDTYWEGYFDLWGQGTLVTVSS VL: EIVLTQSPGTLSLSPGERATLSCRASQGISNYLAWYQQKPGQAPRLLIYDASNLESGIPDRFSGSGSGTDFTLTISRLEPEDFAVYYCQQYANLPYTFGQGTKVEIK | 2 nM | – | 80.3% | – |
| P015042 (antibody, V domains shown) VH: EVQLLESGGGLVQPGGSLRLSCAASGFTFSDYAMSWVRQAPGKGLEWVSVISSDGGSIYYADSVKGRFTISRDNSKNTLYLQMNSLRAEDTAVYYCAKDRSRDMEVDFDYWGQGTLVTVSS VL: QSVLTQPPSASGTPGQRVTISCSGSSSNIGSNYVTWYQQLPGTAPKLLIYDSSQRPSGVPDRFSGSKSGTSASLAISGLRSEDEADYYCGTWDYSLSGYVFGGGTKLTVL | 0.5 nM | – | – | – |
| P015042-vc-PAB-MMAE (antibody, IgG1, V domains shown, maleimidocaproyl-valine-citrulline-p-aminobenzyloxycarbonyl monomethyl auristatin E on cysteine sulfhydryls of reduced disulfides; positions not given; average 3.3 drugs per antibody) VH: EVQLLESGGGLVQPGGSLRLSCAASGFTFSDYAMSWVRQAPGKGLEWVSVISSDGGSIYYADSVKGRFTISRDNSKNTLYLQMNSLRAEDTAVYYCAKDRSRDMEVDFDYWGQGTLVTVSS VL: QSVLTQPPSASGTPGQRVTISCSGSSSNIGSNYVTWYQQLPGTAPKLLIYDSSQRPSGVPDRFSGSKSGTSASLAISGLRSEDEADYYCGTWDYSLSGYVFGGGTKLTVL | 2 nM | – | – | 99.3% |
